{"source": "paper PMC4756836", "about": "(Nucleic Acids Research, 2015)", "proteins": {"B1": {"name": "yeast mitochondrial threonyl-tRNA synthetase MST1 (enzyme, S. cerevisiae)", "chain": "QDLFMTDPLSPGSMFFLPNGAKIFNKLIEFMKLQQKFKFGFNEVVTPLIYKKTLWEKSGHWENYADDMFKVETTDEEKEEYGLKPMNCPGHCLIFGKKDRSYNELPLRFSDFSPLHRNEASGALSGLTRLRKFHQDDGHIFCTPSQVKSEIFNSLKLIDIVYNKIFPFVKGGSGAESNYFINFSTRPDHFIGDLKVWNHAEQVLKEILEESGKPWKLNPGDGAFYGPKLDIMVTDHLRKTHQVATIQLDFQLPERFDLKFKDQDNSYKRPIMIHRATFGSIERFMALLIDSNEGRWPFWLNPYQAVIIPVNTKNVQQLDMCTALQKKLRNELEADDMEPVPLNDWHFNVDLDIRNEPVGYRIKSAILKNYSYLIIVGDEEVQLQKYNIRERDNRKSFEKLTMSQIWEKFIELEKNYK"}}, "biological_target": "the molecule itself", "assay": "crystal structure"}
{"protein": "B1", "values": [{"measurement": "stoichiometry N", "value": 2}]}
